One substance from article PMC3098244 can be followed below.

Assay [1] concerns the target K63-linked diubiquitin (UniProt P0CG48). The assay can be described thus: ITC. As to conditions: domain or fragment.
Assay [2] deals with K48-linked diubiquitin (UniProt P0CG48). The assay can be described thus: ITC. As to conditions: domain or fragment.

GB1-HSJ1a-UIM12 (UIM domain of HSJ1a, residues 206-272, fused to GB1), sequence (P25686 206-272): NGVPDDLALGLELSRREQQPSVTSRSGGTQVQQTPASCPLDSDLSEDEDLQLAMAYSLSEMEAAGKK

As to “GB1-HSJ1a-UIM12 (UIM domain of HSJ1a, residues 206-272, fused to GB1) (from UniProt P25686-2 206-272)”, the Kd – broadly, a measure of binding affinity in units of concentration – in assay [1] is 153 µM; in assay [2], 57 µM.
